In the supplement of paper PMC12764529:
± gives the half width of the 95% confidence interval.

How the values were obtained:
[1] = folding stability dG unfold from chymotrypsin proteolysis; higher = more stable
Procedure, shortened: (§1)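 Bayesian fitting of sequencing counts gave K50 for each design. Unfolding free energy followed by setting this against a sequence-predicted unfolded-state K50 and a shared folded-state K50, either per protease or with trypsin and chymotrypsin combined. The designs, under 80 residues and lacking cysteine, were digested in a PA-tagged cDNA display format at 11 threefold-diluted protease concentrations and without protease, and only those with AlphaFold2 dimer inter-PAE above 15 were kept.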

[2] = folding stability dG unfold from trypsin proteolysis; higher = more stable
Procedure, shortened: as §1

[3] = folding stability dG unfold (combined trypsin and chymotrypsin); higher = more stable
Procedure, shortened: as §1

Sequence | folding stability dG unfold [1] [kcal/mol] | folding stability dG unfold [2] [kcal/mol] | folding stability dG unfold [3] [kcal/mol]
SANIQIMIEDWDPERGWIRISIQVDKGDPDKPITPELVNNIRELFRFRGIEVNIEVHPDGMVNIEIPIPSAG [r14_865_TrROS] | 4.59 ± 0.051 | 3.39 ± 0.069 | 4.14 ± 0.094
SANKNFYIIQIKWEIDGPDGRTLSFMIIVPRDDPDEFLKEAKDFIAEEFGYPIKKIEVDIHRIPPEDFPSAG [r14_104_TrROS] | 3.16 ± 0.07 | 2.76 ± 0.14 | 3.01 ± 0.17
SANMPPGDWKPINIKVKIERPGGKPEFEYPIYKHPDGMIMIFIHFPIPPGAYKIKIEFPGNGKENEFKFSAG [r14_280_TrROS] | 2.84 ± 0.09 | 1.52 ± 0.058 | 2.29 ± 0.32
SANPALYQWVTTDVVLPFETEEEALAAVEALAAARAAATGATVTVSVEVERLPDGLRVRVPVTTLVPLLSAG [r14_626_JUSTAS] | 0.984 ± 0.099 | 1.05 ± 0.012 | 1.05 ± 0.046
SANPGKPVTIEIPVEEIRQKLNEENPDKPLTPSELKDLAKELIQRQGFPFKDVEIKSVNPGNGWIKIKVSAG [r14_303_TrROS] | -0.538 ± 0.43 | 0.871 ± 0.095 | 0.279 ± 0.5
SANPIPLEKANITVSYTSPDGLVVTANITSVTYDPSTGKYTFTFTGTLTDPSTGTTTPVSFTVSTVTLSSAG [r14_825_JUSTAS] | 4.25 ± 0.099 | 2.68 ± 0.1 | 3.79 ± 0.13
SAPIRPGQDLKIEPEIRRYPNGSMSYTYRLEFPNGPTVHVRHTMQRDPEHGKPRHKWDIHLSPKALEAFSAG [r14_842_TrROS] | 1.37 ± 0.09 | 1.49 ± 0.057 | 1.41 ± 0.07
SAPIVIPAKAGSPENVLKAIKEAKELASKGKKVYLPILTKDGPIFFEVDPKTKTIKIYNPKTGEKKDLSSAG [r14_423_TrMRF] | 1.04 ± 0.07 | 1.45 ± 0.032 | 1.25 ± 0.16
SAPKIEILEVDPNRVLIKIDATPEEIEKIVEEIKKKFPGVKVETEKLEGEKKYLIKVIPVPEVPEELKKSAG [r14_600_TrMRF] | 1.44 ± 0.016 | 0.0352 ± 0.067 | 1.1 ± 0.14
SAPKILKVETFPDGSIKVEIPLPETGAIVTITVDPDGNVVVEFYPPKSGKPVRKTIPGKTIEEVLKELGSAG [r14_760_TrMRF] | 1.83 ± 0.052 | 1.41 ± 0.086 | 1.63 ± 0.12
SAPLEQLLEFAEEFAQAYGYRVEIEVYRNGEPKGTYEIPMPKPGQPPVSIMIRIPDPNLYIHVTIYMPRSAG [r14_728_TrROS] | 3.07 ± 0.041 | 2.16 ± 0.071 | 2.75 ± 0.11
SAPLSEEEARQLLEEVAEELERETGASYRVELFRDPATGRWFGRIELPDGRVYTVTYDPATGEVTVTVEASA [r9_9_JUSTAS] | 5.62 ± 0.069 | 4.25 ± 0.1 | 5.62 ± 0.11
SAPPDDWKPVTIPILIPFDSVEDAKEWVIELANELAKKHGWRINIDVDIEPVPNRYYIKIPITIYVPKKSAG [r14_626_TrROS] | 2.42 ± 0.18 | 2.39 ± 0.19 | 2.47 ± 0.31
SAPPKTRTREIEIRFDDYYVRIKITWTKDGNLKLDIEFQGPNPVMREQIKDFLEELNPDFEITDIEVYRSAG [r14_611_TrROS] | 2.67 ± 0.057 | 2.13 ± 0.14 | 2.38 ± 0.3
SAPPYYIVIKFKMELPPPTPEDAKEYDPDGEVRRTTVEMTFVIPIPPEDLEDLKDFMQSLGIEEIEIFKSAG [r14_509_TrROS] | 2.75 ± 0.032 | 2.05 ± 0.087 | 2.56 ± 0.15
SAPQIVEVKEYDPVSKTYTILAETPEGPLTVPVPAGGDTTVEEAIEQVKEYFEKTLPPGVELEIEKILLSAG [r14_422_JUSTAS] | 0.271 ± 0.14 | 0.355 ± 0.08 | 0.418 ± 0.093
SAPWRITDIDVKRHPNGRVRVTIRFPHPNMSVEIWLDKDGELDVEVSPDMRNHPPWFQNMIRDVAKELLSAG [r14_555_TrROS] | 1.33 ± 0.11 | 2.77 ± 0.1 | 2.15 ± 0.1
SARIRIMVPPDFIMVRTPKGKMRMVDDPEEIEEIIKDILPVPIEIEPLPPNSPKFQKMMEMMMREQNGPSAG [r14_235_TrROS] | 0.158 ± 0.23 | -0.264 ± 0.48 | 0.0355 ± 0.18
SASFTLTPVTVTLSPDPETGAILAPVLATAGDHPVFGLAYVDPLDPSRAYYRIYYPPSDLVEYAVVPLPSAG [r14_178_TrMRF] | 0.847 ± 0.15 | 0.469 ± 0.066 | 0.722 ± 0.097
SASLEELLAELPFDAEVETKDEEVVVKITNPENPDPNVSYTFNIPSSSGVPITVNVTEVEGGTKSVKALSAG [r14_401_JUSTAS] | -0.108 ± 0.24 | -0.448 ± 0.15 | -0.172 ± 0.21
SASMEAALAKVEEITAEPSWELVGVSPEGVFTIRNPETGTEIVIEIKVTSDGKGYKVTIPSKTVVPAPESAG [r14_20_JUSTAS] | 1.3 ± 0.13 | 1.45 ± 0.096 | 1.38 ± 0.12

Sequence | folding stability dG unfold [1] [kcal/mol] | folding stability dG unfold [2] [kcal/mol] | folding stability dG unfold [3] [kcal/mol]
SASNKPRTIEVPIMIPPDDLKEHSPEEFIDWIANELGLPPGKDIKIDVDIEPFEHDGRPYYIIPARIQVSAG [r14_334_TrROS] | -0.294 ± 0.32 | -0.362 ± 0.2 | -0.231 ± 0.22
SASPALELAKEIAEKIEPLFPDISPVEVTVTPRGSTALGTIKFKRPDGKELVAKMIVSAGGDPVEIILLSAG [r14_719_JUSTAS] | 1.26 ± 0.25 | 1.56 ± 0.14 | 1.51 ± 0.21
SASPEDTVTTTETEPTTISLGTASIPPDLEVLSVTVTTTTTTTYKVEPPGVPVKLSSTTTTTTTVTLKRTSA [r9_747_JUSTAS] | 2.45 ± 0.1 | 2.79 ± 0.3 | 2.69 ± 0.38
SASPELRKLAEEAAERLVKELGVEKLEFTFTAPVLRPVYTYDPGGNKTPRLEEEIVTYSVTAVVPPEAASAG [r14_232_TrMRF] | -0.21 ± 0.31 | -0.0655 ± 0.14 | -0.0957 ± 0.2
SASPPRRFMIKVTYPDGKTTLSYGDDPEQTRAALEAQIAEEHPGNYTIEYTELSPDEWASPEKAEALLSSAG [r14_900_JUSTAS] | 1.71 ± 0.073 | 2.27 ± 0.034 | 2.01 ± 0.078
SASPSETTTYTVELTSTDPSLTPEDLAERAREEFEAALPPGTRVEVEVVSVTPIPETGTTRYTIRITVRRSA [r9_706_JUSTAS] | 4.26 ± 0.046 | 5.18 ± 0.1 | 4.55 ± 0.027
SASVEEVIEEAKELAKKLGAYVIVTVYKNNKKIGTYEYPSPSKNSPPTSITIESPDPNYKVKITIYPPGSAG [r14_728_JUSTAS] | 3.12 ± 0.032 | 2.53 ± 0.062 | 2.94 ± 0.092
SATETLTVVETRTVRDPAVPGTTTTETRVTEVTRPAPPPPPLSAEELARALAEAGLLERTDDGELKVVLSAG [r14_582_TrROS_Hall] | -0.276 ± 0.11 | -0.559 ± 0.25 | -0.567 ± 0.43
SATFKPGETVTIDELTIDGATITKVTVTVNADGTITITATIKPAPPPPPPPEVVRNPETGKTYPAGEVKDSA [r9_603_TrROS_Hall] | 0.615 ± 0.087 | 1.87 ± 0.19 | 1.34 ± 0.23
SATFRLPNGKTISIMAPLPPGEMTPDQVISMARMIVRNIFPPGKKVEVKIEVEQYPNGMVHVKIPIKAESAG [r14_389_TrROS] | 0.312 ± 0.28 | 0.0799 ± 0.31 | 0.406 ± 0.4
SATIEIPIKVNDRKFRISIERMPDGWIKIQIRDPNMPKDAVKDALREILGPGWKIDTDPETNTIYIPFKSAG [r14_370_TrROS] | 2.77 ± 0.027 | 2.41 ± 0.061 | 2.67 ± 0.059
SATKEIEIEVNGRKLRIRIERKEDGSIKITIELPGMSAEEVKEALRKLLPPDAKITVDEITVTEYREEPSAG [r14_370_TrROS_Hall] | 2.43 ± 0.17 | 3.14 ± 0.17 | 2.84 ± 0.3
SATREIELPGKKITIHHNPGNNMFRITIYDPKPGKPVEIPIPANNPGMTMENIIDQIREAAKKGRPVRISAG [r14_157_TrROS] | 0.671 ± 0.079 | 0.85 ± 0.036 | 0.885 ± 0.082
SATTTLNLSSVEELKELVEKLIAEGNPEATLTVTLYPPSGESSTKSFSSVEEVIEELKKGPASVTITVTSSA [r9_589_JUSTAS] | 2.7 ± 0.022 | 2.18 ± 0.045 | 2.56 ± 0.049
SATVTLVSVEKEGDKTTVTTRDPSGYTVTVTNPDGSIVLAPIPAEGAEAAIAAIKAAHPGVTVTLEAAASAG [r14_528_JUSTAS] | 1.24 ± 0.031 | 0.617 ± 0.036 | 1.15 ± 0.11
SAVEIEFWFPGGMSVEEFVNEFSKILPGLRDVDIGVEPYPETDMWKVTATIRIVPPPSPEDQEEMQKNKSAG [r14_645_TrROS] | 1.7 ± 0.051 | 1.38 ± 0.07 | 1.62 ± 0.1
SAVELPPDASITAVTVDPSGSRTVEVEVKTTTAYVYDPATGTTTTVPPGVRTVVTLPADVPVTVSFTSPSAG [r14_385_JUSTAS] | 0.484 ± 0.084 | 0.252 ± 0.099 | 0.413 ± 0.085
SAVINIEAWFPPGKSVEEAVDEAKNIIHQFGFEIDDVDVERDPNGWVRVDFTIKIKPPMPPEQRKKLQDSAG [r14_110_TrROS] | 2.91 ± 0.091 | 1.25 ± 0.051 | 2.45 ± 0.26
SAVIPLEELARKVAEELGLEPVEVLEVIPEEGVVVMRFEGAVIVVKVDPETGEAEVEIVVFDPETGKPVSAG [r14_270_TrMRF] | 3.35 ± 0.063 | 2.82 ± 0.11 | 3.16 ± 0.085
SAVITYPIPDDKPTLILEPLPGSESLLILSTKREKIPNGTYKVEALVVRYEPALGASVEEKVELIEPIGSAG [r14_591_JUSTAS] | -0.216 ± 0.56 | -0.819 ± 0.46 | -0.239 ± 0.22
SAVPLELPLSDEELRELLEKHSVDSTITLTLKVGDRWVRVTVTLKEVKREPNRLSVSVELTVTPLPPEESAG [r14_335_JUSTAS] | 4.08 ± 0.051 | 2.86 ± 0.07 | 3.81 ± 0.13
